Experimental findings from patent publication US11814447B2, “Peptide ligands for binding to EphA2” (BICYCLERD LIMITED, priority 2018, dated 2023) are described below.

Starred links: 1 amine or outer side, 2 acyl side, 3 side chain; linkers in the order of their positions; H or OH if unused. Positions of bridges follow the written chain, without caps; N, C: chain ends. Non-standard residues stand in square brackets, D forms with d. No end group written: not given here. TATA = O=C(CC[*:1])N1CN(C(=O)CC[*:2])CN(C(=O)CC[*:3])C1; βAla = NCCC(=O)O; Sar = CNCC(=O)O

The target in the test is T1, Human EphA2 (Ecto) (Human, UniProt P29317 24-537).
T1 construct: extracellular domain; in-house)
T1 sequence (P29317 24-537): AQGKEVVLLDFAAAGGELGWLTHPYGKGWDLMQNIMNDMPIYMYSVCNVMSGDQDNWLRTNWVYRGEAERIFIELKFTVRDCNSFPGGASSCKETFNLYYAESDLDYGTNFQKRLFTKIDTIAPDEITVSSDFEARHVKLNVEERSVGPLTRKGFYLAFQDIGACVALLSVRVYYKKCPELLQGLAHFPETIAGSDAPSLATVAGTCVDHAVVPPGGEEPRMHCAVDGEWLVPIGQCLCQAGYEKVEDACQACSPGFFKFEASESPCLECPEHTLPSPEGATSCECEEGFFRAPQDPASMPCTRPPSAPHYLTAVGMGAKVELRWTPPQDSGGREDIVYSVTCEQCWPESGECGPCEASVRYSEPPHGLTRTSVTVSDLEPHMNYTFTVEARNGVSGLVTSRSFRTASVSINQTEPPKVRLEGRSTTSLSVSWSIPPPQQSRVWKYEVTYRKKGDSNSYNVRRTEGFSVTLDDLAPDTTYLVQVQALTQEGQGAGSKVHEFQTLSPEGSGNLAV
Kind of test: FP competition; tracer Reference Compound C. As to the method: Peptides without a fluorescent tag were tested in competition with a peptide with a fluorescent tag and a known Kd (Table 2). Peptides were diluted to an appropriate concentration in assay buffer as described in the direct binding assay with a maximum of 5% DMSO, then serially diluted 1 in 2. […] Measurements were conducted as for the direct binding assay, however the gain was determined prior to the first measurement. Data analysis was in Systat Sigmaplot version 12.0 where the mP values were fit to a user defined cubic equation to generate a Ki value: […]
One may read the Ki as the dissociation constant of the complex between target and ligand, obtained from inhibition or displacement. ACQSCWAYPDTYCA (linker 2-5-13 via TATA) [Bicycle Compound Number 39 (TATA scaffold), ACQSCWAYPDTYCA] had a Ki of 0.321 µM.

ACSSCWAYPDSVCA (linker 2-5-13 via TATA) [Bicycle Compound Number 38 (TATA scaffold), ACSSCWAYPDSVCA]: the affinity corresponds to a Ki of 0.4 µM.

On to ACPDWGKYCAYPDTICA (linker 2-9-16 via TATA) [Bicycle Compound Number 36 (TATA scaffold), ACPDWGKYCAYPDTICA], for which the Ki came to 0.16 µM.

ACVPDRRCAFQDVCDHE (linker 2-8-14 via TATA) [Bicycle Compound Number 27 (TATA scaffold), ACVPDRRCAFQDVCDHE] had a Ki of 0.159 µM.

Molecule ACGFMGLEPCELFCA (linker 2-10-14 via TATA (inferred)) [Bicycle Compound Number 46 (TATA scaffold), ACGFMGLEPCELFCA] gave a Ki of 0.0817 µM.

In the case of ACGFMGLEPCELVCA (linker 2-10-14 via TATA) [Bicycle Compound Number 44 (TATA scaffold), ACGFMGLEPCELVCA], the Ki turned out to be 0.127 µM.

Take ACGFMGLEPCEMVCA (linker 2-10-14 via TATA) [Bicycle Compound Number 42 (TATA scaffold), ACGFMGLEPCEMVCA]: the Ki is 0.321 µM.

With ACGFMGLEPCETFCA (linker 2-10-14 via TATA) [Bicycle Compound Number 40 (TATA scaffold), ACGFMGLEPCETFCA], the Ki stood at 0.188 µM.

ACGFMGLEPCEMYCA (linker 2-10-14 via TATA (inferred)) [Bicycle Compound Number 50 (TATA scaffold), ACGFMGLEPCEMYCA]: the inhibition constant (Ki) came to 0.14 µM.

ACRGEWGYCAYPDTICA (linker 2-9-16 via TATA) [Bicycle Compound Number 34 (TATA scaffold), ACRGEWGYCAYPDTICA]: the Ki came to 0.348 µM.

For HSGCRPDPRCAYMNVCA (linker 4-10-16 via TATA) [Bicycle Compound Number 21 (TATA scaffold), HSGCRPDPRCAYMNVCA], the Ki was found to be 0.0621 µM.

Molecule DLRCGGDPRCAYMNVCA (linker 4-10-16 via TATA) [Bicycle Compound Number 18 (TATA scaffold), DLRCGGDPRCAYMNVCA] displayed a Ki of 0.0708 µM.

As for ACTKPTGFCAYPDTICA (linker 2-9-16 via TATA) [Bicycle Compound Number 33 (TATA scaffold), ACTKPTGFCAYPDTICA], the Ki was 0.269 µM.

In the case of ACRNWGMYCAYPDTICA (linker 2-9-16 via TATA) [Bicycle Compound Number 35 (TATA scaffold), ACRNWGMYCAYPDTICA], the Ki worked out at 0.283 µM.

ETVCLPDSRCAYMNVCA (linker 4-10-16 via TATA) [Bicycle Compound Number 23 (TATA scaffold), ETVCLPDSRCAYMNVCA] yielded a Ki of 0.13 µM.

For ACVPDRRCAYMNVCA (linker 2-8-14 via TATA) [Bicycle Compound Number 16 (TATA scaffold), ACVPDRRCAYMNVCA], the affinity corresponds to a Ki of 0.07 µM.

ESRCSPDARCAYMNVCA (linker 4-10-16 via TATA) [Bicycle Compound Number 20 (TATA scaffold), ESRCSPDARCAYMNVCA]: affinity was put at a Ki of 0.057 µM.

ACVPDRRCAFRDVCLTG (linker 2-8-14 via TATA) [Bicycle Compound Number 28 (TATA scaffold), ACVPDRRCAFRDVCLTG] displayed a Ki of 1.7 µM.

SRPCVIDSRCAYMNVCA (linker 4-10-16 via TATA) [Bicycle Compound Number 19 (TATA scaffold), SRPCVIDSRCAYMNVCA]: the Ki amounted to 0.0948 µM.

ACVPDRRCAFENVCVDH (linker 2-8-14 via TATA) [Bicycle Compound Number 25 (TATA scaffold), ACVPDRRCAFENVCVDH] displayed a Ki of 0.0973 µM.

Regarding [βAla][Sar][Sar][Sar][Sar][Sar][Sar][Sar][Sar][Sar][Sar]ACVPDRRCAYMNVC (linker 13-19-25 via TATA) [Bicycle Compound Number 17 (TATA scaffold), (β-Ala)-Sar10-ACVPDRRCAYMNVC], affinity was put at a Ki of 0.0851 µM.
